In experiment [1] the target is T1, Human VISTA expressed on cells (human, UniProt Q9H7M9 33-311).
T1 construct: also called HEK293 VISTA O/E; HEK293T cells transfected with vector encoding human VISTA
The experiment in a line: flow cytometry, HEK293T cells transfected with human VISTA vs wildtype, 20 µg/ml antibody (FIGS. 1C, 2, 24). On the technique in general: Flow cytometry measures light scatter and fluorescence of single cells or particles in a stream.
Experimental: The cells were washed thrice with FACS buffer (PBS with 5 mM EDTA and 0.5% BSA) and resuspended in FITC-conjugated anti-FC antibody (Invitrogen, USA) for 40 min at 2-8° C. Cells were washed again and resuspended in 200 μL of FACS flow buffer (PBS with 5 mM EDTA) for flow cytometric analysis using MACSQuant 10 (Miltenyi Biotec, Germany). After acquisition, all raw data were analyzed using Flowlogic software. Cells were gated using forward and side scatter profile and Median of Fluorescence Intensity (MFI) value was determined for native and overexpressing cell populations.

In a further experiment the target is T2, His-tagged human VISTA (human, UniProt Q9H7M9 33-194).
T2 construct: also called human VISTA-His recombinant protein; VISTA/human His-tagged fusion protein (Sinobiological Inc); not shown: His tag
The experiment in a line: BLI (Octet QK384), His-tagged VISTA captured on anti-Penta-HIS tips, antibody as analyte, global one site fit. In general terms: BLI is a label-free optical method that tracks binding on a fibre tip over time.

Experiment [2] addresses T3, His-tagged cynomolgus macaque VISTA (cynomolgus macaque, UniProt A0A7N9IB00 33-194).
T3 construct: also called cynomolgus monkey VISTA; not shown: His tag
The description is as above.

The target in a further experiment is T4, Histidine-tagged mFcγRIV (mouse, UniProt A0A0B4J1G0 21-203).
T4 construct: also called mouse FcγRIV; mFcγRIV (50036-M08H, Sino Biological)
T4 sequence: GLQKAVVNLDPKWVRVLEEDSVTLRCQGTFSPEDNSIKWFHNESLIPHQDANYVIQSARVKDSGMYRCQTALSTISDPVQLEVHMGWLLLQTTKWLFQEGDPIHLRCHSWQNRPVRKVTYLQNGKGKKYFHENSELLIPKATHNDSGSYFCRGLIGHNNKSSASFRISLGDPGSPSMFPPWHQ
Nature of the experiment: BLI (Octet QK384), His-tagged receptor on anti-Penta-HIS biosensor, antibody as analyte, pH 7.2.

In experiment [3] the target is T5, Histidine-tagged mFcγRIII (mouse, UniProt P08508 31-215).
T5 construct: also called mouse FcγRIII; mFcγRIII (50326-M08H, Sino Biological); not shown: histidine tag
T5 sequence (looked up): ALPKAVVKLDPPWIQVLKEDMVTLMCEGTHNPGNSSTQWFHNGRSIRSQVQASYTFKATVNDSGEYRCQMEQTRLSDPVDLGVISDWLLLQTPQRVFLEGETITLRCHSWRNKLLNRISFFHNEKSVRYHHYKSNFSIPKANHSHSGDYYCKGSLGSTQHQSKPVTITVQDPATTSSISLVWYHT
Described as above.

The target in experiment [4] is T6, Histidine-tagged mFcγRIIb (mouse, UniProt P08101 30-207).
T6 construct: also called mouse FcγRIIb; mFcγRIIb (50030-M08H, Sino Biological); not shown: histidine tag
T6 sequence (looked up): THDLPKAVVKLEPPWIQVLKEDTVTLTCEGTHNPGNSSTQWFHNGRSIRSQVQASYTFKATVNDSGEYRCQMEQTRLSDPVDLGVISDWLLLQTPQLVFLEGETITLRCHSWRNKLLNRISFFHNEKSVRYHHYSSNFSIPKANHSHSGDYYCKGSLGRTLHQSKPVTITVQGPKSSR
The description is as above.

By Kd is commonly meant a measure of binding affinity in units of concentration. Read a high Kd as a looser complex.

Experimental for His-tagged human VISTA: All measurements were performed at 25° C. with agitation at 1000 rpm. Kinetic measurements for antigen binding were performed by loading anti-VISTA antibody at different concentrations (indicated in the Figures) for 120 s, followed by a 120 s dissociation time by transferring the biosensors into assay buffer containing wells. Sensograms were referenced for buffer effects and then fitted using the Octet QK384 user software (Pall ForteBio, USA). Kinetic responses were subjected to a global fitting using a one site binding model to obtain values for association (kon), dissociation (koff) rate constants and the equilibrium dissociation constant (KD). Only curves that could be reliably fitted with the software (R²>0.90) were included in the analysis.

B1: anti-VISTA clone 9M2-C12 IgG1 (antibody, V domains shown)
VH: QVQLQQSGAELVKPGASVRLSCKASGYTFTSYWMHWVRQRPGLGLEWIGEIDPSDSYTNCNQRFKGKATLTVDKSSSTAYTQLSSLTSEDSAVYYCARWAYGPYAMDYWGQGTSVTVSS
VL: DIVMTQTPLSLPVSLGDQASISCRSSQSLVHSNGNTYLHWYLQKPGQSPKLLIYKVSNRFSGVPDRFSGSGSGTDFTLKISRVEAEDLGVYFCSQSTHVPWTFGGGTKLEIKR
Regarding B1, the binding result in experiment [1] is “binds”.

B2: anti-VISTA clone 4M2-C12 IgG1 (antibody)
heavy: not shown
light: DIVITQTPAILSTSPGEKVTMTCRASSSVGYIHWYQQKPGSSPKPWIYATSNLASGVPARFSGSGSGTSNSLTITRVEAEDAATYYCQQWSSYPPITFGGGTKLEVKRTVAAPSVFIFPPSDEQLKSGTASVVCLLNNFYPREAKVQWKVDNALQSGNSQESVTEQDSKDSTYSLSSTLTLSKADYEKHKVYACEVTHQGLSSPVTKSFNRGEC
notes: Human-mouse chimeric IgG1/kappa; also called V4; clone V4
B2: the Kd (with His-tagged human VISTA; in experiment [2]) was under 1000 nM throughout.

B3: 4M2-C12 mIgG2a (antibody)
heavy: EVKLVESGPGLVKPSQSLSLTCTVTGYSITSDYAWNWIRQFPGNKLEWMGYITYSGNISYNPSLRSRISITRDTSKNQFFLQLNSVTPEDTATYSCARSLYYPWYFDVWGAGTTVTVSSAKTTAPSVYPLAPVCGDTTGSSVTLGCLVKGYFPEPVTLTWNSGSLSSGVHTFPAVLQSDLYTLSSSVTVTSSTWPSQSITCNVAHPASSTKVDKKIEPRGPTIKPCPPCKCPAPNLLGGPSVFIFPPKIKDVLMISLSPIVTCVVVDVSEDDPDVQISWFVNNVEVHTAQTQTHREDYNSTLRVVSALPIQHQDWMSGKEFKCKVNNKDLPAPIERTISKPKGSVRAPQVYVLPPPEEEMTKKQVTLTCMVTDFMPEDIYVEWTNNGKTELNYKNTEPVLDSDGSYFMYSKLRVEKKNWVERNSYSCSVVHEGLHNHHTTKSFSRTPGK
light: DIVITQTPAILSTSPGEKVTMTCRASSSVGYIHWYQQKPGSSPKPWIYATSNLASGVPARFSGSGSGTSNSLTITRVEAEDAATYYCQQWSSYPPITFGGGTKLEVKRADAAPTVSIFPPSSEQLTSGGASVVCFLNNFYPKDINVKWKIDGSERQNGVLNSWTDQDSKDSTYSMSSTLTLTKDEYERHNSYTCEATHKTSTSPIVKSFNRNEC
notes: Mouse IgG2a format, produced in CHO cells; also called 4M2-C12 IgG2a
Turning to B3, the binding result (with Histidine-tagged mFcγRIV; in experiment [3]; in experiment [4]) was “binds” each time.

The values above are taken from patent publication US20190300610A1 (published 2019).
